Data on 11 molecules can be found in publication PMC4154873, “Delineation of Interfaces on Human Alpha-Defensins Critical for Human Adenovirus and Human Papillomavirus Inhibition” (PLoS Pathogens, 2014).

For assay [1], the target named is T1, rPenton (fiber and penton base) (Human adenovirus C serotype 5, UniProt P11818+P12538).
T1 construct: enterokinase recognition site 5′ of the full-length human AdV5 penton base (PB) gene; The baculovirus expression system was used to generate full-length human AdV-5 fiber; enterokinase recognition site (pRSET-A leader) (N); 6xHis followed by Tev protease recognition site (N, cleaved yes); made in house; host or cells: PB: E. coli BL21-CodonPlus (DE3)-RIPL; fiber: HighFive insect cells (baculovirus)
The assay is described as follows: biochemical. It is filed as binding, human AdV-5. Conditions: for Kd: SPR Biacore T200, CM5 chip, 2115 RU rPenton, 25°C, HBS EP+ pH 7.4, steady-state fit of RU at 80 sec association, 3 µM to 111 nM, best-fit ± SE. Here is the method:
(§1) Experiments were performed on a Biacore T200 system (Biacore, GE Healthcare) at 25°C in HBS EP+ running buffer (9.5 mM HEPES, 142.5 mM NaCl, 2.85 mM EDTA, 0.05% surfactant P20, pH 7.4). The first flow cell on a CM5 sensor chip was reserved to measure background binding, while additional cells were used to immobilize fiber, PB, and rPenton by amine-coupling chemistry. A target density of 2000 resonance units (RU) was selected for rPenton, and for Figure 3D, an equal number of fiber (708 RU) and PB (1292 RU) were also targeted for immobilization. The final RUs immobilized were: 2115 RU rPenton, 889 RU fiber, and 1061 RU PB. Analyte was injected to the flow cells at a rate of 11 µl/min and binding was measured for 3 min, followed by measuring dissociation for 5 min in analyte-free running buffer. The flow cells were regenerated with two 30 s pulses of 10 mM HCl at 11 µl/min separated by 30 s in running buffer. After regeneration, the flow cells were stabilized in running buffer for 2 min before injection of the next analyte. Data analysis was performed using Biacore T200 evaluation software and Prism (version 5.0d).
Affinity (KD) and Bmax were derived by fitting RU values at 80 s post-injection using the Steady State Surface Bound Affinity model in Biacore T200 Evaluation software. Stoichiometry (Sm) of HD5 bound to rPenton at saturation was calculated using the following equation: [drawing 1] (1)
In general terms: In SPR one partner is held on a chip, and binding of the other changes the refractive index at the surface.

Assay [2] deals with rPenton, recombinant penton capsomere of human AdV-5 fiber and penton base (human AdV-5). Nature of the assay: SPR.
Assay [3] concerns AdV5.eGFP. The assay is described as follows: Neutralization of AdV5.eGFP pre-bound to A549 cells before addition of HNP1. Type of assay: cell-based, human AdV-5. Conditions: virus pre-bound to cells, versus wild type HNP1.
Protocol: A549 cell monolayers were infected with serial dilutions of AdV5.eGFP in black wall, clear bottom 96-well plates (Perkin-Elmer, San Jose, CA). Total monolayer fluorescence was quantified with a Typhoon 9400 variable mode imager (GE Healthcare, Piscataway, NJ) 24–30 h post-infection. A virus concentration producing 50–80% maximal signal was chosen for inhibition studies.
Serum-free DMEM (SFM) alone or containing increasing concentrations of wild type or mutant HD5 was incubated with purified AdV5.eGFP for 45 min on ice. The mixture (35 µl/well) was added to a confluent monolayer of A549 cells that had been washed twice in SFM. Cells were then incubated at 37°C for 2 h with rocking, washed, and cultured with complete DMEM for 24–30 h. Plates were scanned for eGFP signal as above, and background-subtracted total well fluorescence was quantified using ImageJ software [36]. […] For assays with HNP1, virus alone in SFM was pre-incubated on a confluent monolayer of A549 cells with rocking for 45 min at 4°C. Cells were then washed twice with chilled SFM, and SFM alone or containing increasing concentrations of wild type or mutant HNP1 was added. Cells were incubated for 45 min at 4°C and then shifted to 37°C. After 2 h, cells were washed twice with complete media and incubated a further 24–30 h at 37°C until eGFP signal was quantified as above.
Assay [4] has as its target human AdV-5 fiber (human AdV-5). The assay is described as follows: immunoblot of samples heated or not before SDS-PAGE; fiber samples heated or not for 5 min to 95°C, 4D2 anti-fiber mAb; data not shown. (In general: A western blot detects proteins with antibodies after separation by electrophoresis.)
The target is the same in assay [5]. Nature of the assay: SEC; analytical size exclusion chromatography, Superdex 200 10/300 GL; data not shown.
Assay [6] concerns the target human AdV-5 penton base (human AdV-5). Described as above.
The test system of assay [7] is AdV5.eGFP. Conditions: cited from earlier work.
The test system of the next assay is penton base (PB). Nature of the assay: SPR binding to immobilized penton base. Also on record: species or system human AdV-5. Conditions: CAR-Ig at 35 nM, 1061 RU PB. Here is the method:
as §1

The test system of a further assay is fiber. The assay is described as follows: SPR binding to immobilized fiber. Conditions: CAR-Ig at 35 nM, 889 RU fiber. The arrangement: species or system human AdV-5. The procedure: as §1

Where a SMILES comes first, the peptide text is derived from it. Bridges are numbered along the chain shown (N, C = ends).

Sequence of rPenton, recombinant penton capsomere of human AdV-5 fiber and penton base (human AdV-5) (P11818 whole entry, chain 1 of 2): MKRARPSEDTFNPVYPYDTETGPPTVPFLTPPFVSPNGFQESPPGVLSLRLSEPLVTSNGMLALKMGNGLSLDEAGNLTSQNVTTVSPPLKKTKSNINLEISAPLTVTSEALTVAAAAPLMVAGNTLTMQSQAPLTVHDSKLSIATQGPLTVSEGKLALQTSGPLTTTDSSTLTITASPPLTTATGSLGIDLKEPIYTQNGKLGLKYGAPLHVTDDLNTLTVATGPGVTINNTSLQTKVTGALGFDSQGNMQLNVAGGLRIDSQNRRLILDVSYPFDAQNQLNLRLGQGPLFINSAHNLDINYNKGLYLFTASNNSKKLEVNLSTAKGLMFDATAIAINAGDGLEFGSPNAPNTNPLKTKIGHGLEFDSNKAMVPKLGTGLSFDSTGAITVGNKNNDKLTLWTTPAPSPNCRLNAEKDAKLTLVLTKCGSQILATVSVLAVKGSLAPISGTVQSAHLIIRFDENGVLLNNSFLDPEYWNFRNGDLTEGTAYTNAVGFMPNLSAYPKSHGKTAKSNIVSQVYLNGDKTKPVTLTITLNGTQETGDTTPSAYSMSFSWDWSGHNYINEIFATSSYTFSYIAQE
Sequence of rPenton, recombinant penton capsomere of human AdV-5 fiber and penton base (human AdV-5) (P12538 whole entry, chain 2 of 2, further chain): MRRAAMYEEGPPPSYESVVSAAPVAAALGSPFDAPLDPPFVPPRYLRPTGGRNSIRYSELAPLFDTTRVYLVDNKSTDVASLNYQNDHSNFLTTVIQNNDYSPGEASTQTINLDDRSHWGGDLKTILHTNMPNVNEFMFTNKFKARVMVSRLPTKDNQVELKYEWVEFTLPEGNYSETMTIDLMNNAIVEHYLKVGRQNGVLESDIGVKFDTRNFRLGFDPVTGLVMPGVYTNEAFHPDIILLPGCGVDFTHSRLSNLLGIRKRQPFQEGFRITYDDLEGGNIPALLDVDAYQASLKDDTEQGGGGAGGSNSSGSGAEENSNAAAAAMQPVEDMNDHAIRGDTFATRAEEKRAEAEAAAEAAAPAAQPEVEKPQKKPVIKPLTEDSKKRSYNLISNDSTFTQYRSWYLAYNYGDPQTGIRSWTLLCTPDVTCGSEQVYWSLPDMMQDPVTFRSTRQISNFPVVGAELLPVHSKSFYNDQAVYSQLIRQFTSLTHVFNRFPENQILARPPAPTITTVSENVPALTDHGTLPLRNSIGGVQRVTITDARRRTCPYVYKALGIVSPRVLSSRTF
T1 sequence (P11818 whole entry): as the sequence (P11818 whole entry, chain 1 of 2) above
T1 sequence (P12538 whole entry): as the sequence (P12538 whole entry, chain 2 of 2, further chain) above

On to `CC[C@H](C)[C@@H]1NC(=O)[C@H](CCC(=O)O)NC(=O)[C@@H]2CSSC[C@@H]3NC(=O)[C@H](Cc4ccc(O)cc4)NC(=O)[C@@H](NC(=O)[C@@H](NC(=O)[C@H](C)N)[C@@H](C)O)CSSC[C@@H](C(=O)N[C@@H](CCCNC(=N)N)C(=O)O)NC(=O)[C@H](CSSC[C@H](NC(=O)[C@H](CCCNC(=N)N)NC(=O)CNC(=O)[C@H]([C@@H](C)O)NC(=O)[C@H](CCCNC(=N)N)NC3=O)C(=O)N[C@@H](C)C(=O)N[C@@H]([C@@H](C)O)C(=O)N[C@@H](CCCNC(=N)N)C(=O)N[C@@H](CCC(=O)O)C(=O)N[C@@H](CO)C(=O)N[C@@H](CC(C)C)C(=O)N[C@@H](CO)C(=O)NCC(=O)N[C@@H](C(C)C)C(=O)N2)NC(=O)[C@H](CC(C)C)NC(=O)[C@H](CCCNC(=N)N)NC(=O)[C@H](Cc2ccc(O)cc2)NC(=O)[C@H](CC(C)C)NC(=O)[C@H](CCCNC(=N)N)NC(=O)CNC(=O)[C@H](CO)NC1=O` [HD5, human α-defensin 5, reference compound] (H-ATCYCRTGRCATRESLSGVCEISGRLYRLCCR-OH; disulfide 3-31, 5-20, 10-30), for which, in assay [1], binding was characterised by a dissociation constant (Kd) of 1.81 ± 0.22 µM. In turn, `CC[C@H](C)[C@@H]1NC(=O)[C@H](CCC(=O)O)NC(=O)[C@@H]2CSSC[C@@H]3NC(=O)[C@H](Cc4ccc(O)cc4)NC(=O)[C@@H](NC(=O)[C@@H](NC(=O)[C@H](C)N)[C@@H](C)O)CSSC[C@@H](C(=O)N[C@@H](CCCNC(=N)N)C(=O)O)NC(=O)[C@H](CSSC[C@H](NC(=O)[C@H](CCCNC(=N)N)NC(=O)CNC(=O)[C@H]([C@@H](C)O)NC(=O)[C@H](CCCNC(=N)N)NC3=O)C(=O)N[C@@H](C)C(=O)N[C@@H]([C@@H](C)O)C(=O)N[C@@H](CCCNC(=N)N)C(=O)N[C@@H](CCC(=O)O)C(=O)N[C@@H](CO)C(=O)N[C@@H](CC(C)C)C(=O)N[C@@H](CO)C(=O)NCC(=O)N[C@@H](C(C)C)C(=O)N2)NC(=O)[C@H](C)NC(=O)[C@H](CCCNC(=N)N)NC(=O)[C@H](Cc2ccc(O)cc2)NC(=O)[C@H](CC(C)C)NC(=O)[C@H](CCCNC(=N)N)NC(=O)CNC(=O)[C@H](CO)NC1=O` [L29A] (H-ATCYCRTGRCATRESLSGVCEISGRLYRACCR-OH; disulfide 3-31, 5-20, 10-30) yielded a Kd in assay [1] of 3.82 ± 0.3 µM. Same read-out and setting: then `CC[C@H](C)[C@@H]1NC(=O)[C@H](CCC(=O)O)NC(=O)[C@@H]2CSSC[C@@H]3NC(=O)[C@H](Cc4ccc(O)cc4)NC(=O)[C@@H](NC(=O)[C@@H](NC(=O)[C@H](C)N)[C@@H](C)O)CSSC[C@@H](C(=O)N[C@@H](CCCNC(=N)N)C(=O)O)NC(=O)[C@H](CSSC[C@H](NC(=O)[C@H](CCCNC(=N)N)NC(=O)CNC(=O)[C@H]([C@@H](C)O)NC(=O)[C@H](CCCNC(=N)N)NC3=O)C(=O)N[C@@H](C)C(=O)N[C@@H]([C@@H](C)O)C(=O)N[C@@H](CCCNC(=N)N)C(=O)N[C@@H](CCC(=O)O)C(=O)N[C@@H](CO)C(=O)N[C@@H](CC(C)C)C(=O)N[C@@H](CO)C(=O)NCC(=O)N[C@@H](C(C)C)C(=O)N2)NC(=O)[C@H](CC(C)C)NC(=O)[C@H](CCCNC(=N)N)NC(=O)[C@H](C)NC(=O)[C@H](CC(C)C)NC(=O)[C@H](CCCNC(=N)N)NC(=O)CNC(=O)[C@H](CO)NC1=O` [Y27A] (H-ATCYCRTGRCATRESLSGVCEISGRLARLCCR-OH; disulfide 3-31, 5-20, 10-30), with 3.39 ± 0.27 µM. As for HD5 L29A (peptide), the Kd in assay [2] is 3.82 µM.

On to HD5 Y27A (peptide), for which, in assay [2], the Kd came to 3.39 µM. On to HNP1 W26A, for which, in the assay on AdV5.eGFP [3], the “Effect of HNP1 mutation on anti-AdV activity (in words)” value is reported as “most deleterious”. Consider human AdV-5 fiber (natural protein), for which the stoichiometry N in assay [4] and in assay [5] was 3 each time.

For the molecule “human AdV-5 penton base (natural protein)”, the stoichiometry N in assay [6] was 5. For the molecule human neutrophil peptide 1 [HNP1], in the assay on AdV5.eGFP [7], the “Ability to neutralize AdV infection compared to HD5 (in words)” value was “reduced ability to neutralize AdV infection”.

B1: CAR-Ig: soluble form of the AdV receptor fused to the constant region of rabbit Ig (protein)
chain: LSITTPEEMIEKAKGETAYLPCKFTLSPEDQGPLDIEWLISPADNQKVDQVIILYSGDKIYDDYYPDLKGRVHFTSNDLKSGDASINVTNLQLSDIGTYQCKVKKAPGVANKKIHLVVLVKPSGARCYVDGSEEIGSDFKIKCEPKEGSLPLQYEWQKLSDSQKMPTSWLAEMTSSVISVKNASSEYSGTYSCTVRNRVGSDQCLLRLNVVPPSNK
modifications: left off: Fc (rabbit IgG heavy chain), end not stated, kept
Consider B1, for which, in the assay with penton base (PB), the “Binding to immobilized PB (in words)” value is given as “unable to bind”. For the same molecule, in the assay with fiber, the “Binding to immobilized fiber (in words)” value is “able to bind”. For the same molecule, the “Binding to immobilized rPenton (in words)” value in assay [1] is recorded as “able to bind”.

B2: human α-defensin 5 (HD5), wild type (peptide)
chain: ATCYCRTGRCATRESLSGVCEISGRLYRLCCR
As for B2, in [2], the dissociation constant (Kd) was 1.81 µM and the stoichiometry N turned out to be 210.

Broadly, the Kd is the free concentration of one partner at which half of the binding sites on the other are occupied at equilibrium, for simple one-to-one binding. One may read the stoichiometry N as the number of molecules, sites or subunits per partner or assembly.
